For this assay, the target named is MCP-1 (known wild type human MCP-1, commercial, R&D #279-MC) (human) (UniProt P13500). Nature of the assay: cell-based or functional assay.
UniProt P13500, sequence (P13500 24-99): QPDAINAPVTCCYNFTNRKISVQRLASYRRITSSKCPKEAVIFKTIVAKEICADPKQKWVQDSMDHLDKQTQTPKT

Substance “MCP-1-65-Fc variant (MCP-1 splice variant MCP-1-65 fused to mutated N297A human IgG1 Fc) (Fc fusion)” showed an inhibition of MCP-1-induced THP-1 cell migration (transwell, cells counted by FACS), IC50 of 400 pM and an inhibition of MCP-1-induced THP-1 cell migration (transwell, cells counted by FACS), percent inhibition below 90%.

For the origin of these results see patent US20100166733A1.
